# Experimental data reported in the supplement of paper PMC10724198.
# ± gives the standard deviation of the averaged measurements.
# Test system: Saccharomyces cerevisiae
# Assay: protein stability index of tFT-peptide fusion (C-terminal peptide) (PSI (0-1 scale)); higher = more stable (slower turnover)
# Conditions: genetic background: das1 deletion; temperature: 30 C
# Method: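 MPS profiling in S. cerevisiae of the yeast C-terminome library: the last 12 aa of each annotated ORF are fused to the C-terminus of a sfGFP-mCherry timer, after a GGGS linker. Cells are FACS-sorted into 8 mCherry/sfGFP bins and deep-sequenced. PSI runs from 0 (unstable) to 1 (stable); wild type and das1Δ backgrounds, two technical replicates each.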
row,Sequence,protein stability index
1,KTFSYKRPSTFY [RPL20A C-terminal 12 aa],0.6745 ± 0.0049
2,KTGKEVRSGKQL [ATX1 C-terminal 12 aa],0.689 ± 0.0069
3,KTYLNFADNGQI [ELM1 C-terminal 12 aa],0.675 ± 0.0079
4,KVESSDCSFEFA [VID24 C-terminal 12 aa],0.6988 ± 0.0069
5,KVNENWKRYGYK [FDC1 C-terminal 12 aa],0.6814 ± 0.0052
6,KYGIYLKEKTVA [LYS9 C-terminal 12 aa],0.663 ± 0.013
7,KYILAWLRKVLL [YFL012W-A C-terminal 12 aa],0.651 ± 0.031
8,LAFYLRRLTAKK [RPS8A C-terminal 12 aa],0.674 ± 0.041
9,LCHSSHIPETLK [MSN1 C-terminal 12 aa],0.719 ± 0.033
10,LCKEELKYQAIQ [YMR099C C-terminal 12 aa],0.701 ± 0.037
11,LCQHYIGWCPFW [TOR1 C-terminal 12 aa],0.7144 ± 0.0024
12,LDGSREVGAAKS [UME1 C-terminal 12 aa],0.682 ± 0.026
13,LDKELTDGCKQQ [PEX19 C-terminal 12 aa],0.7031 ± 0.005
14,LDKVGKKKGGKK [LRP1 C-terminal 12 aa],0.701 ± 0.049
15,LDLWRDFLNQAN [IDS2 C-terminal 12 aa],0.742 ± 0.015
16,LDQFEINSDGEE [NCS2 C-terminal 12 aa],0.691 ± 0.022
17,LEAATNFLLDSA [EDE1 C-terminal 12 aa],0.722 ± 0.027
18,LELEFNSHFELK [HNT3 C-terminal 12 aa],0.69 ± 0.008
19,LEWLSNSLKNST [ARF1 C-terminal 12 aa],0.735 ± 0.034
20,LFVEETNDIGYK [TRE2 C-terminal 12 aa],0.736 ± 0.026
21,LFYVMTMTKFLF [PHM6 C-terminal 12 aa],0.5199 ± 0.0025

row,Sequence,protein stability index
1,LGDAYVSSDEEF [YEF3 C-terminal 12 aa],0.683 ± 0.016
2,LGEYIEEMNIRS [YBP2 C-terminal 12 aa],0.7143 ± 0.0008
3,LGGLLTVLIWFL [KRE1 C-terminal 12 aa],0.335 ± 0.004
4,LIDSVKKKVNND [SAC3 C-terminal 12 aa],0.681 ± 0.029
5,LIGGNTNDGLSK [CHA4 C-terminal 12 aa],0.683 ± 0.023
6,LIMELAVNSQSN [SNF1 C-terminal 12 aa],0.681 ± 0.034
7,LIQFLEPSKRVA [YPT35 C-terminal 12 aa],0.72 ± 0.037
8,LITTRTVHRSLD [YEL076C-A C-terminal 12 aa],0.6963 ± 0.0014
9,LKDLEKLGWKDE [YGR054W C-terminal 12 aa],0.695 ± 0.013
10,LKKQIFEKVQKE [MET4 C-terminal 12 aa],0.701 ± 0.02
11,LKPWEGRIYISE [IMA1 C-terminal 12 aa],0.714 ± 0.016
12,LKSLSKYSVQNS [CTF3 C-terminal 12 aa],0.686 ± 0.014
13,LKTIAAVFSVRV [YJR114W C-terminal 12 aa],0.612 ± 0.0077
14,LLERLSILDRLD [APS2 C-terminal 12 aa],0.669 ± 0.019
15,LLIPRRILTLDL [PDL32 C-terminal 12 aa],0.602 ± 0.001
16,LLLLILNECYPA [BUD30 C-terminal 12 aa],0.518 ± 0.0085
17,LLLSFYFDFYPF [YEL050W-A C-terminal 12 aa],0.515 ± 0.009
18,LLPMAFGPSHLN [CDD1 C-terminal 12 aa],0.743 ± 0.032
19,LLSGEPLAKKKE [HMLALPHA2 C-terminal 12 aa],0.697 ± 0.0074
20,LLSVHMYSSSLL [YNL019C C-terminal 12 aa],0.687 ± 0.011
21,LMETSKDVDSHP [DMA2 C-terminal 12 aa],0.7 ± 0.01

row,Sequence,protein stability index
1,LPEAPSSQPLQA [TIM17 C-terminal 12 aa],0.674 ± 0.013
2,LPNVPTVAYVII [YNL319W C-terminal 12 aa],0.6334 ± 0.0054
3,LPPEGKPKGKDD [TAZ1 C-terminal 12 aa],0.701 ± 0.018
4,LQARLNTLKKQT [DID4 C-terminal 12 aa],0.681 ± 0.049
5,LQPLIDLDIDNK [ICS2 C-terminal 12 aa],0.699 ± 0.026
6,LQRLCKKYPEIY [RFA3 C-terminal 12 aa],0.709 ± 0.015
7,LRIYKNPPLDGP [YJL163C C-terminal 12 aa],0.729 ± 0.022
8,LRRYEEDLFCTF [IES2 C-terminal 12 aa],0.759 ± 0.029
9,LRWKKRNGIASK [NOP16 C-terminal 12 aa],0.636 ± 0.017
10,LSHKGIKHLNIT [YGR266W C-terminal 12 aa],0.702 ± 0.022
11,LSKRRTRLINFN [PXL1 C-terminal 12 aa],0.727 ± 0.013
12,LSLRTKNTENKE [YGL159W C-terminal 12 aa],0.716 ± 0.038
13,LSQRVKKEYAAN [COQ21 C-terminal 12 aa],0.708 ± 0.024
14,LSSSDDNYGSLA [SNA2 C-terminal 12 aa],0.702 ± 0.013
15,LTARRKNRQQWE [COX23 C-terminal 12 aa],0.704 ± 0.022
16,LTINDLDVTFVI [YCR041W C-terminal 12 aa],0.721 ± 0.022
17,LTTSVLCCVVFT [CNE1 C-terminal 12 aa],0.348 ± 0.0076
18,LTYNTSCQRRQK [YOR161W-A C-terminal 12 aa],0.715 ± 0.0089
19,LVSYFLKVQMNL [YNL095C C-terminal 12 aa],0.514 ± 0.02
20,LYKPSVWDLFEY [FZF1 C-terminal 12 aa],0.716 ± 0.016
21,LYVCIYISAFIK [FYV12 C-terminal 12 aa],0.137 ± 0.019

row,Sequence,protein stability index
1,MAHRIKNFRDEL [SIL1 C-terminal 12 aa],0.712 ± 0.0079
2,MAINDCFDQAQG [YER076C C-terminal 12 aa],0.695 ± 0.0062
3,MASVVKGNATSA [PHO90 C-terminal 12 aa],0.69425 ± 0.00061
4,MDLKRFKGEFSF [PEX5 C-terminal 12 aa],0.69824 ± 0.00026
5,MDSRVAHGNILI [SRB5 C-terminal 12 aa],0.70004 ± 0.00046
6,MGCIKGTVKTKY [ABZ2 C-terminal 12 aa],0.668 ± 0.039
7,MIENEKQNPAKQ [OSH6 C-terminal 12 aa],0.693 ± 0.0075
8,MMGFSNFATSKK [SNU23 C-terminal 12 aa],0.728 ± 0.011
9,MNKKHHKPIPFD [RRD2 C-terminal 12 aa],0.762 ± 0.027
10,MPSATTKNPYAQ [CAF120 C-terminal 12 aa],0.709 ± 0.042
11,MRLLGLTPVERM [YDR341C C-terminal 12 aa],0.672 ± 0.00072
12,MTRLKKLLTLEW [ZIP2 C-terminal 12 aa],0.817 ± 0.047
13,MVSSLRNANHIF [BCS1 C-terminal 12 aa],0.712 ± 0.028
14,NAKSKVFSIENN [LSG1 C-terminal 12 aa],0.681 ± 0.039
15,NCEPIATTFRAN [MGL2 C-terminal 12 aa],0.7086 ± 0.00098
16,NDDSKDEDDIIP [MAL33 C-terminal 12 aa],0.6831 ± 0.0019
17,NDTEHVTLHTNT [YDL228C C-terminal 12 aa],0.711 ± 0.0095
18,NEASKATGASVH [YOP1 C-terminal 12 aa],0.7 ± 0.0098
19,NGPVNNNAHLVA [FAT3 C-terminal 12 aa],0.689 ± 0.0098
